Assay results as given in PMC11490885.

Target: hβ3-ICL-del 1D4 (human GABAA receptor β3 subunit, intracellular loop deleted, homomeric receptor) (human)
Assay: native MS; purified β3-ICL-del receptor, buffer exchanged into 200 mM ammonium acetate pH 8, 0.08 mM DMNG; static nanospray, Q-Exactive EMR; unlabeled receptor seen as a single species; pentamer

stoichiometry N: 5
Substance: hβ3-ICL-del 1D4 (human GABAA receptor β3 subunit, intracellular loop deleted, homomeric receptor)
